Patent US20160194407A1
One block for each binder: values may come before it.

Target: T1, recombinant murine CD73 protein (form not stated) (murine) (UniProt Q61503)
T1 sequence (looked up): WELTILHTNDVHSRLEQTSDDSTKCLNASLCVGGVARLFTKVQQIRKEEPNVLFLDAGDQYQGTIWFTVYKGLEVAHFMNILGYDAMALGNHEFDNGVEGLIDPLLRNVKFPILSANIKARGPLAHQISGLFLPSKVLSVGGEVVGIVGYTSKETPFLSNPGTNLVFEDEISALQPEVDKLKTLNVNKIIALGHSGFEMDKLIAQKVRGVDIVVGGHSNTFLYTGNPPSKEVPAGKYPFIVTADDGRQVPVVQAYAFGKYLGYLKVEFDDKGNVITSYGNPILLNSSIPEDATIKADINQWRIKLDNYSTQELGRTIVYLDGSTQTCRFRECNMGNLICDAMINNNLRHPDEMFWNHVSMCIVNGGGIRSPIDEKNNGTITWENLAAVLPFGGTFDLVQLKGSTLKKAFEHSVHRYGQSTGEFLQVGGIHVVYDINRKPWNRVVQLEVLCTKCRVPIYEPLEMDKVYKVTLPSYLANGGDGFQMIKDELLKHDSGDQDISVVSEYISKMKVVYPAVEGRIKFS
Assay: Binding, Mouse; assay not described

- 1/EC50: 0 nM⁻¹
B1: CD730047 antibody (antibody, IgG1, V domains shown)
VH: EVQLVQSGGGVVQPGRSLRLSCAASGFTFSSYGMHWVRQAPGKGLEWVAVISYDGSIKYYADSVKGRFAISRDNAKNTLYLQMNSLRREDTAMYYCASGLTGVAGALGVWGRGTLVTVSS
VL: QSVLTQPPSASGAPGQRVTISCSGSSSNIGSNTVNWYQRLPGAAPQLLIYNNDQRPSGIPDRFSGSKSGTSGSLVISGLQSEDEADYYCAAWDDSLSGNVFGTGTKVTVL

- 1/EC50: 0 nM⁻¹
B2: CD730042 antibody (antibody, IgG1, V domains shown)
VH: GVQLVQSGGGLVQPGGSLRLSCAASGFTFSSYGMHWVRQAPGKGLEWVAVISYDGSIKYYADSVKGRFTISRDDSKNALYLQMNSLRAEDTAVYYCSTLSGSYGYFDYWGRGTLVTVSS
VL: QSVLTQPASVSGSPGQSITISCAGTSSDVGGYNYVSWYQQHPGKAPKLMIYEGSKRPSGVSNRFSGSKSGNTASLTISGLQAEDEADYYCSSYTTRSTRVFGGGTKLTVL
